Here are results for 1 molecule from patent US5804555A, “Antioxidant” (Morinaga Milk Industry Co., Ltd., priority 1992, dated 1998).

The test is described as follows: Test 1: antioxidant effect on linoleic acid, peroxides by ferric thiocyanate method. Format: biochemical. Particulars: 0.2% added to linoleic acid, 60° C. Here is the method:
A sample was prepared by adding dl-α tocopherol (manufactured by Wako Jun-yaku Kogyo Company), bovine lactoferrin (manufactured by Sigma Company), hydrolysate of lactoferrin (prepared by the same method as in the Example 2), or peptide (prepared by the same method as in the Example 3) to a final concentration of 0.2% (weight percentage; same applies hereafter except for the degree of decomposition) to commercially available linoleic acid (manufactured by Wako Jun-Yaku Kogyo Company) containing no additive. Hereafter, the thus prepared samples are individually referred to as […].
Antioxidant effect of the individual samples was tested by the method of Mitsuda et al.(Eiyo to Shokuryo, Vol. 19, p. 210, 1966) described below.
The above-mentioned samples were added to a mixed solution containing 10 ml of ethanol, 10 ml of 0.1M phosphate buffer solution (pH: 7.0), and 5 ml of deionized water so as to achieve a final concentration of linoleic acid of […](mol/l). This solution was placed in a vial bottle having a capacity of 50 ml, and the closely plugged bottle was held in an incubator at 60° C. The total volume was always adjusted to 25 ml by reducing the above-mentioned ionized water, depending upon the quantity of added sample. At prescribed time intervals, 0.1 ml was sampled from this vial bottle to measure the quantity of peroxides by the following ferric thiocyanate method.
To the sample solution in an amount of 0.1 ml, 4.7 ml of 75% ethanol, 0.1 ml of 30% ammonium rhodanide, and 0.1 ml of 3.5% hydrochloric acid solution of 2×10^-2 M ferrous chloride were added, and absorbance at 500 nm was measured upon the lapse of just three minutes.

B1: Sample 3: Test 1 Sample 3: bovine lactoferrin (Sigma Company) added to linoleic acid (protein)
chain: APRKNVRWCTISQPEWFKCRRWQWRMKKLGAPSITCVRRAFALECIRAIAEKKADAVTLDGGMVFEAGRDPYKLRPVAAEIYGTKESPQTHYYAVAVVKKGSNFQLDQLQGRKSCHTGLGRSAGWIIPMGILRPYLSWTESLEPLQGAVAKFFSASCVPCIDRQAYPNLCQLCKGEGENQCACSSREPYFGYSGAFKCLQDGAGDVAFVKETTVFENLPEKADRDQYELLCLNNSRAPVDAFKECHLAQVPSHAVVARSVDGKEDLIWKLLSKAQEKFGKNKSRSFQLFGSPPGQRDLLFKDSALGFLRIPSKVDSALYLGSRYLTTLKNLRETAEEVKARYTRVVWCAVGPEEQKKCQQWSQQSGQNVTCATASTTDDCIVLVLKGEADALNLDGGYIYTAGKCGLVPVLAENRKSSKHSSLDCVLRPTEGYLAVAVVKKANEGLTWNSLKDKKSCHTAVDRTAGWNIPMGLIVNQTGSCAFDEFFSQSCAPGADPKSRLCALCAGDDQGLDKCVPNSKEKYYGYTGAFRCLAEDVGDVAFVKNDTVWENTNGESTADWAKNLNREDFRLLCLDGTRKPVTEAQSCHLAVAPNHAVVSRSDRAAHVKQVLLHQQALFGKNGKNCPDKFCLFKSETKNLLFNDNTECLAKLGGRPTYEEYLGTEYVTAIANLKKCSTSPLLEACAFLTR
On to B1, for which the “Degree of peroxidation (absorbance at 500 nm)” value came out at 0 (period of preservation 0 days); 0.23 (period of preservation 3 days); 0.30 (period of preservation 6 days); 0.31 (period of preservation 10 days); 0.32 (period of preservation 13 days).
